Measurements published in paper PMC7278562, “A high‐affinity, bivalent PDZ domain inhibitor complexes PICK1 to alleviate neuropathic pain” (EMBO Molecular Medicine, 2020).
Ends that are not written are not given here. Peptide text beside a SMILES is read from it. * marks the point of attachment. 3‑phenylpropyl = c1ccc(CCC*)cc1; Cyclohexylmethyl = C1CCC(C*)CC1; Bn = c1ccc(C*)cc1

Columns and labels:
PICK1 [1] = biological target: T1, PICK1 (Rattus norvegicus, UniProt Q9EP80); details: best-known binder of the PICK1 PDZ domain; ref Madsen et al, 2005; cited from earlier work
T1 construct: GST (inferred from pET41 and Glutathione-Sepharose capture) (cleaved yes); made in house; host or cells: Escherichia coli BL21-DE3-pLysS
Text: To this end, we took advantage of a fluorescence polarization (FP) competition assay using a fluorescent tracer peptide corresponding to the C‐terminal 11 residues of the DAT (OrG‐C11) (Fig EV1A).

[2] = tested on: mechanical allodynia in SNI mice; assay: Spared nerve injury (SNI) model, von Frey paw withdrawal threshold; type: in vivo
PICK1 [3] = biological target: T1, PICK1; assay: FP saturation binding; details: Appendix Fig S2, n = 3
Procedure: Protein expression was induced with 1 mM IPTG and grown overnight at 20°C. […] 1 l culture at pH 7.4. Suspended pellet was frozen at −80°C. The bacterial suspension was thawed and cleared by centrifugation (F20 rotor, 36,000 × g for 30 min at 4°C). The supernatant was collected and incubated with Glutathione‐Sepharose 4B beads (GE Healthcare) for 2 h at 4°C under gentle rotation. […] Washed beads were transferred to a PD10 gravity column and were washed additionally three times. Bead solution was incubated with thrombin overnight at 4°C under gentle rotation.
The data were plotted using GraphPad Prism 8.3 and fitted to either a sigmoidal dose response for saturation experiments or One site competition for competition experiments. Kis were automatically calculated using the Cheng–Prusoff equation.

hippocampal neurons = assay: Membrane permeability in dissociated hippocampal neurons (confocal, DiO membrane dye); details: 21 DIV neurons, 1 h, 37°C, 5 μM TMR-labeled peptide (legend: TMR-C5 20 μM), confocal fluorescence
[4] = 20 μM i.t.; for presence in spinal cord after i.t. injection: naïve mice, 1 h after injection, fluorescence
Procedure: All spinal cords were isolated by hydraulic extrusion and post‐fixed in PFA 4% for 8 h. Spinal cords were subsequently cryoprotected in 30% sucrose, embedded in Tissue‐Tek® OCT, and sliced at 20 μm thickness by Cryostat Leica CM3050 S.
Epifluorescence microscopy was performed using a Zeiss axioscan.Z1, with a plan‐apochromat 10×/0.45 objective (Carl Zeiss). […] All channels were imaged covering a total of around 6 μm of the 20‐μm‐thick spinal cord slices.

Plasma stability = type: in vitro ADME; details: human plasma (3H biomedical) with 2% DMSO, 50 μM peptide, 37°C, GnHCl/TCA-acetone work-up, C8 RP-HPLC (UPLC), normalized to T = 0, mean, n ≥ 3, read-out: peptide remaining after incubation with human plasma
Procedure: The peptides were dissolved to a final concentration of 50 μM in human plasma (3H biomedical, Uppsala, Sweden) containing 2% DMSO and incubated at 37°C. Aliquots (45 μl) were added directly to 26 mg guanidine hydrochloride (GnHCl), vortexed, and incubated for 2 min. 90 μl of 10% trichloroacetic acid (TCA) in acetone was then added, and the suspension was incubated at 5°C for 24 h.
The suspension was centrifuged at 18,000 g for 5 min. The supernatants were quantified by analytical C8 RP‐HPLC and normalized to the compound concentration at T = 0. Ligand recovery was > 82%.

[5] = biological target: PICK1 (protein interacting with C kinase 1), purified recombinant rat (rat) (UniProt Q9EP80); assay: fluorescence polarisation; competition (Ki with SEM interval); tracer and conditions not stated
[6] = biological target: PICK1 (protein interacting with C kinase) (rat) (UniProt Q9EP80); assay: fluorescence polarisation; competition; fixed PICK1 and a fluorescent tracer (not named for this series) against increasing unlabeled peptide; 20 min on ice; Ki by Cheng-Prusoff
[7] = biological target: OrG-C11, Oregon Green labelled C-terminal 11 residues of the dopamine transporter; assay: fluorescence polarisation; saturation; fluorescent peptide fixed at 20 nM, increasing PICK1; 0.01% Triton X-100 (PICK1 a dimer); KD from a log dose-response fit
[8] = biological target: Org-GluA2 C11, Oregon Green labelled C-terminal 11 residues of GluA2; assay: as above
[9] = biological target: DAT C13 C-terminal 13 residues (Homo sapiens) (UniProt Q01959); details: cited from earlier work
[10] = biological target: PICK1 (protein interacting with C kinase) (rat) (UniProt Q9EP80); assay: SEC; analytical SEC of purified PICK1 (40 uM in the titration) alone or incubated with peptide; absorbance at 280 nm and, for the TMR peptide, 544/546 nm
[11] = biological target: PICK1 (protein interacting with C kinase) (rat) (UniProt Q9EP80); assay: fluorescence polarisation
[12] = biological target: PICK1 (protein interacting with C kinase) (rat) (UniProt Q9EP80); assay: fluorescence polarisation; remark: listed apart in the source

CC(C)C[C@H](NC(=O)[C@H](Cc1c[nH]c2ccccc12)NC(=O)[C@H](Cc1c[nH]cn1)NC(=O)[C@H](CCCNC(=N)N)NC(=O)[C@H](CC(C)C)NC(=O)[C@@H](NC(=O)[C@H](Cc1ccccc1)NC(=O)[C@H](CCC(N)=O)NC(=O)[C@H](CCCNC(=N)N)NC(=O)[C@@H](NC(=O)[C@@H](N)CCC(=O)O)C(C)C)[C@@H](C)O)C(=O)N[C@@H](CCCCN)C(=O)N[C@H](C(=O)O)C(C)C [DAT C13] (H-EVRQFTLRHWLKV-OH)
Ki (PICK1 [1]): 1 µM

CCOC(=O)NC(=O)/C(C#N)=C/c1ccc(Cl)c(Cl)c1 [FSC231]
effect on PWT / ipsilateral paw hypersensitivity ([2]; i.t. 20 μM, initiation stage (2 days after injury), n = 8 mice/group): did not significantly change PWT

CC(C)C[C@H](NC(=O)[C@H](Cc1c[nH]c2ccccc12)NC(=O)[C@H](Cc1c[nH]cn1)NC(=O)CCOCCOCCN(CCOCCOCCC(=O)N[C@@H](Cc1c[nH]cn1)C(=O)N[C@@H](Cc1c[nH]c2ccccc12)C(=O)N[C@@H](CC(C)C)C(=O)N[C@@H](CCCCN)C(=O)N[C@H](C(=O)O)C(C)C)C(=O)[C@H](CCCNC(=N)N)NC(=O)[C@H](CCCNC(=N)N)NC(=O)[C@H](CCCNC(=N)N)NC(=O)[C@H](CCC(N)=O)NC(=O)[C@H](CCCNC(=N)N)NC(=O)[C@H](CCCNC(=N)N)NC(=O)[C@H](CCCCN)NC(=O)[C@H](CCCCN)NC(=O)[C@H](CCCNC(=N)N)NC(=O)CNC(=O)[C@H](Cc1ccc(O)cc1)NC(=O)c1ccc2c(c1)C(=O)OC21c2ccc(N(C)C)cc2Oc2cc(N(C)C)ccc21)C(=O)N[C@@H](CCCCN)C(=O)N[C@H](C(=O)O)C(C)C [TMR-Tat-P4-(C5)2]
affinity from saturation binding curves (PICK1 [3]): low nanomolar affinity
membrane penetration / labeling of neurons (hippocampal neurons): labeled neurons
time of maximal accumulation in cells ([4]; SNI mice, time points 0, 30, 60, 120 min): 60 min
cell type of peptide signal in gray matter ([4]; SNI mice, NeuN and GFAP staining): exclusively confined toward neurons
presence in spinal cord after i.t. injection [4]: clearly visible in both the ventral and dorsal parts of the spinal cord

CC(C)C[C@H](NC(=O)[C@H](Cc1c[nH]c2ccccc12)NC(=O)[C@H](Cc1cnc[nH]1)NC(=O)[C@H](CCCNC(=N)N)NC(=O)[C@H](CCCNC(=N)N)NC(=O)[C@H](CCCNC(=N)N)NC(=O)[C@H](CCC(N)=O)NC(=O)[C@H](CCCNC(=N)N)NC(=O)[C@H](CCCNC(=N)N)NC(=O)[C@H](CCCCN)NC(=O)[C@H](CCCCN)NC(=O)[C@H](CCCNC(=N)N)NC(=O)CNC(=O)[C@@H](N)Cc1ccc(O)cc1)C(=O)N[C@@H](CCCCN)C(=O)N[C@H](C(=O)O)C(C)C [Tat-C5]
remaining at 24 h, 50 μM (Plasma stability): ~5%

NCC1(CC(=O)O)CCCCC1 [gabapentin]
efficacy 14 days after nerve injury ([2]; i.p. 30 mg/kg, chronic phase, n = 4 per gender): comparable efficacy
ipsilateral paw threshold ([2]; i.p. 30 mg/kg, initiation stage (2 days after injury), at 1, 2, 3 h, n = 4 mice): full recovery

DAT C3 peptide, N-acetylated, R = COCH3
Ki [5]: 3.8 µM

DAT C3 peptide, N-alkylated, R = CH3
Ki [5]: 9.38 µM

DAT C3 peptide, N-alkylated, R drawn (cyclohexylmethyl)
Ki [5]: 6.82 µM

DAT C3 peptide, no modification
Ki [5]: 4.1 µM

P4‐(C5)2 (peptide)
Ki [6]: 0.098 µM

P28‐(C5)2 (peptide)
Ki [6]: 0.593 µM

PEG0‐(HWLKV)2 (peptide)
fold increase in affinity over C5 [6]: > 10 fold

PEG8‐(HWLKV)2 (peptide)
fold increase in affinity over C5 [6]: > 10 fold

PEG12‐(HWLKV)2 (peptide)
fold increase in affinity over C5 [6]: > 10 fold

PICK1 (protein interacting with C kinase 1), purified recombinant rat (from UniProt Q9EP80 1-416) (natural protein)
Kd [7]: 0.44 µM
Kd [8]: 1.53 µM

PICK1 PDZ (from UniProt Q9NRD5)
Ki [9]: 1 µM

TMR‐Ahx‐YGRKKRRQRRR‐HWLKV [TMR-Tat-C5]
presence in spinal cord after i.t. injection [4]: clearly visible in both the ventral and dorsal parts of the spinal cord

Tat‐P4‐(C5)2 (peptide)
stoichiometry N (Tat‐P4‐(C5)2 per PICK1) [10]: 0.25
Ki [11]: 0.0062 µM
fold affinity gain over C5 [11]: > 300 fold
Ki [12]: 0.0017 µM

B1: DAT C4 peptide, N-alkylated, R = (CH2)3CH3 (peptide)
peptide: {n‑butyl}-WLKV
Ki [5]: 45.3 µM

B2: DAT C4 peptide, N-alkylated, R drawn (benzyl) (peptide)
peptide: Bn-WLKV
Ki [5]: 24.5 µM

B3: DAT C4 peptide, N-alkylated, R drawn (3-phenylpropyl) (peptide)
peptide: {3‑phenylpropyl}-WLKV
Ki [5]: 38.6 µM

B4: DAT C4 peptide, N-alkylated, R = (CH2)2CH3 (peptide)
peptide: {n‑propyl}-WLKV
Ki [5]: 46.6 µM

B5: DAT C4 peptide, N-alkylated, R drawn (2-naphthylethyl) (peptide)
peptide: {2‑(naphthyl)ethyl}-WLKV
modifications: not fully specified
Ki [5]: 48 µM

B6: DAT C4 peptide, N-acetylated, R = COCH3 (peptide)
peptide: Ac-WLKV
Ki [5]: 3.49 µM

B7: DAT C4 peptide, N-alkylated, R drawn (cyclohexylmethyl) (peptide)
peptide: Cyclohexylmethyl-WLKV
Ki [5]: 15.1 µM

B8: DAT C4 peptide, N-alkylated, R = CH2CH3 (peptide)
peptide: Et-WLKV
Ki [5]: 30 µM

B9: DAT C4 peptide, N-alkylated, R drawn (2-phenylethyl) (peptide)
peptide: {2‑phenylethyl}-WLKV
Ki [5]: 26.2 µM

B10: DAT C4 peptide, N-alkylated, R = CH3 (peptide)
peptide: methyl-WLKV
Ki [5]: 18.8 µM

B11: DAT C4 peptide, no modification (peptide)
peptide: WLKV
Ki [5]: 5.69 µM

B12: DAT C4 peptide, N-alkylated, R drawn (2-cyclohexylethyl) (peptide)
peptide: {2‑cyclohexylethyl}-WLKV
Ki [5]: 31.8 µM
